From the RNAGym collection of RNA variant scans (doi:10.7554/elife.80360)

B1: Hammerhead Ribozyme (parent)
chain: ACCGGAUGUGCUUUCCGGUCUGAUGAGUCCGUGAGGACGAAACAG

Variants of: B1
Test: self-cleavage, relative activity (ratio to wild type); higher = more cleavage; co-transcriptional

Q: For C30U G39U, which self-cleavage is on record?
A: 0.365

Q: Which self-cleavage does the source give for C30U G45A here?
A: 0.606

Q: With C30U G45C as the variant, how does the self-cleavage read?
A: 1.05

Q: With C30U G45U as the variant, how does the self-cleavage read?
A: 0.981

Q: For C30U U32A, which self-cleavage is on record?
A: 0.892

Q: For C30U U32C, which self-cleavage is on record?
A: 1.05

Q: Which self-cleavage does the source give for C30U U32G here?
A: 1.17

Q: For G31A, which self-cleavage is on record?
A: 1.03

Q: Which self-cleavage does the source give for G31A A34C here?
A: 0.991

Q: Which self-cleavage does the source give for G31A A34G here?
A: 0.846

Q: With G31A A34U as the variant, how does the self-cleavage read?
A: 0.954

Q: With G31A A37C as the variant, how does the self-cleavage read?
A: 1.17

Q: For G31A A37G, which self-cleavage is on record?
A: 0.978

Q: Which self-cleavage does the source give for G31A A37U here?
A: 0.866

Q: For G31A A40C, which self-cleavage is on record?
A: 0.642

Q: Which self-cleavage does the source give for G31A A40G here?
A: 0.417

Q: Which self-cleavage does the source give for G31A A40U here?
A: 0.297

Q: With G31A A41C as the variant, how does the self-cleavage read?
A: 0.407

Q: For G31A A41G, which self-cleavage is on record?
A: 0.317

Q: For G31A A41U, which self-cleavage is on record?
A: 0.399

Q: For G31A A42C, which self-cleavage is on record?
A: 0.38

Q: With G31A A42G as the variant, how does the self-cleavage read?
A: 0.298

Q: With G31A A42U as the variant, how does the self-cleavage read?
A: 0.335

Q: With G31A A44C as the variant, how does the self-cleavage read?
A: 0.685

Q: With G31A A44G as the variant, how does the self-cleavage read?
A: 1.51

Q: With G31A A44U as the variant, how does the self-cleavage read?
A: 0.861

Q: With G31A C38A as the variant, how does the self-cleavage read?
A: 0.766

Q: With G31A C38G as the variant, how does the self-cleavage read?
A: 0.592

Q: For G31A C38U, which self-cleavage is on record?
A: 0.919

Q: Which self-cleavage does the source give for G31A C43A here?
A: 0.329

Q: For G31A C43G, which self-cleavage is on record?
A: 0.345

Q: For G31A C43U, which self-cleavage is on record?
A: 0.499

Q: With G31A G33A as the variant, how does the self-cleavage read?
A: 0.887

Q: For G31A G33C, which self-cleavage is on record?
A: 0.767

Q: With G31A G33U as the variant, how does the self-cleavage read?
A: 1.15

Q: With G31A G35A as the variant, how does the self-cleavage read?
A: 1.05

Q: For G31A G35C, which self-cleavage is on record?
A: 1.01

Q: With G31A G35U as the variant, how does the self-cleavage read?
A: 0.875

Q: Which self-cleavage does the source give for G31A G36A here?
A: 0.603

Q: For G31A G36C, which self-cleavage is on record?
A: 0.671

Q: Which self-cleavage does the source give for G31A G36U here?
A: 0.552

Q: Which self-cleavage does the source give for G31A G39A here?
A: 0.356

Q: For G31A G39C, which self-cleavage is on record?
A: 0.377

Q: For G31A G39U, which self-cleavage is on record?
A: 0.315

Q: Which self-cleavage does the source give for G31A G45A here?
A: 0.934

Q: With G31A G45C as the variant, how does the self-cleavage read?
A: 0.945

Q: Which self-cleavage does the source give for G31A G45U here?
A: 0.805

Q: With G31A U32A as the variant, how does the self-cleavage read?
A: 1.06

Q: Which self-cleavage does the source give for G31A U32C here?
A: 1

Q: Which self-cleavage does the source give for G31A U32G here?
A: 0.529

Q: Which self-cleavage does the source give for G31C here?
A: 0.96

Q: With G31C A34C as the variant, how does the self-cleavage read?
A: 1

Q: For G31C A34G, which self-cleavage is on record?
A: 0.994

Q: With G31C A34U as the variant, how does the self-cleavage read?
A: 0.68

Q: Which self-cleavage does the source give for G31C A37C here?
A: 1.05

Q: Which self-cleavage does the source give for G31C A37G here?
A: 0.968

Q: Which self-cleavage does the source give for G31C A37U here?
A: 0.587

Q: For G31C A40C, which self-cleavage is on record?
A: 0.564

Q: For G31C A40G, which self-cleavage is on record?
A: 0.302

Q: Which self-cleavage does the source give for G31C A40U here?
A: 0.367

Q: For G31C A41C, which self-cleavage is on record?
A: 0.306

Q: With G31C A41G as the variant, how does the self-cleavage read?
A: 0.374

Q: Which self-cleavage does the source give for G31C A41U here?
A: 0.381

Q: Which self-cleavage does the source give for G31C A42C here?
A: 0.328

Q: With G31C A42G as the variant, how does the self-cleavage read?
A: 0.232

Q: Which self-cleavage does the source give for G31C A42U here?
A: 0.373

Q: With G31C A44C as the variant, how does the self-cleavage read?
A: 0.441

Q: Which self-cleavage does the source give for G31C A44G here?
A: 1.53

Q: Which self-cleavage does the source give for G31C A44U here?
A: 0.655

Q: Which self-cleavage does the source give for G31C C38A here?
A: 0.62

Q: With G31C C38G as the variant, how does the self-cleavage read?
A: 0.488

Q: Which self-cleavage does the source give for G31C C38U here?
A: 0.94

Q: Which self-cleavage does the source give for G31C C43A here?
A: 0.392

Q: For G31C C43G, which self-cleavage is on record?
A: 0.34

Q: With G31C C43U as the variant, how does the self-cleavage read?
A: 0.436

Q: With G31C G33A as the variant, how does the self-cleavage read?
A: 1.08

Q: Which self-cleavage does the source give for G31C G33C here?
A: 0.969

Q: With G31C G33U as the variant, how does the self-cleavage read?
A: 0.879

Q: Which self-cleavage does the source give for G31C G35A here?
A: 0.966

Q: For G31C G35C, which self-cleavage is on record?
A: 0.779

Q: With G31C G35U as the variant, how does the self-cleavage read?
A: 0.698

Q: Which self-cleavage does the source give for G31C G36A here?
A: 0.527

Q: For G31C G36C, which self-cleavage is on record?
A: 0.453

Q: With G31C G36U as the variant, how does the self-cleavage read?
A: 0.562

Q: For G31C G39A, which self-cleavage is on record?
A: 0.355

Q: For G31C G39C, which self-cleavage is on record?
A: 0.314

Q: With G31C G39U as the variant, how does the self-cleavage read?
A: 0.373

Q: Which self-cleavage does the source give for G31C G45A here?
A: 0.438

Q: Which self-cleavage does the source give for G31C G45C here?
A: 0.515

Q: With G31C G45U as the variant, how does the self-cleavage read?
A: 0.757

Q: For G31C U32A, which self-cleavage is on record?
A: 0.908

Q: For G31C U32C, which self-cleavage is on record?
A: 0.773

Q: Which self-cleavage does the source give for G31C U32G here?
A: 0.683

Q: For G31U, which self-cleavage is on record?
A: 0.966

Q: Which self-cleavage does the source give for G31U A34C here?
A: 0.84

Q: With G31U A34G as the variant, how does the self-cleavage read?
A: 0.938

Q: With G31U A34U as the variant, how does the self-cleavage read?
A: 0.844

Q: With G31U A37C as the variant, how does the self-cleavage read?
A: 1.25

Q: Which self-cleavage does the source give for G31U A37G here?
A: 0.899

Q: For G31U A37U, which self-cleavage is on record?
A: 0.847

Q: With G31U A40C as the variant, how does the self-cleavage read?
A: 0.797

Q: With G31U A40G as the variant, how does the self-cleavage read?
A: 0.382

Q: Which self-cleavage does the source give for G31U A40U here?
A: 0.399

Q: Which self-cleavage does the source give for G31U A41C here?
A: 0.388

Q: For G31U A41G, which self-cleavage is on record?
A: 0.364

Q: With G31U A41U as the variant, how does the self-cleavage read?
A: 0.324

Q: With G31U A42C as the variant, how does the self-cleavage read?
A: 0.363

Q: For G31U A42G, which self-cleavage is on record?
A: 0.28

Q: For G31U A42U, which self-cleavage is on record?
A: 0.295

Q: With G31U A44C as the variant, how does the self-cleavage read?
A: 0.564

Q: With G31U A44G as the variant, how does the self-cleavage read?
A: 1.64

Q: Which self-cleavage does the source give for G31U A44U here?
A: 0.94

Q: With G31U C38A as the variant, how does the self-cleavage read?
A: 0.776

Q: For G31U C38G, which self-cleavage is on record?
A: 0.59

Q: Which self-cleavage does the source give for G31U C38U here?
A: 0.801

Q: Which self-cleavage does the source give for G31U C43A here?
A: 0.376

Q: With G31U C43G as the variant, how does the self-cleavage read?
A: 0.472

Q: With G31U C43U as the variant, how does the self-cleavage read?
A: 0.637

Q: Which self-cleavage does the source give for G31U G33A here?
A: 0.708

Q: With G31U G33C as the variant, how does the self-cleavage read?
A: 1.08

Q: Which self-cleavage does the source give for G31U G33U here?
A: 1.23

Q: For G31U G35A, which self-cleavage is on record?
A: 0.879

Q: For G31U G35C, which self-cleavage is on record?
A: 0.654

Q: With G31U G35U as the variant, how does the self-cleavage read?
A: 1.03

Q: With G31U G36A as the variant, how does the self-cleavage read?
A: 0.482

Q: For G31U G36C, which self-cleavage is on record?
A: 0.568

Q: Which self-cleavage does the source give for G31U G36U here?
A: 0.466

Q: For G31U G39A, which self-cleavage is on record?
A: 0.32

Q: With G31U G39C as the variant, how does the self-cleavage read?
A: 0.474

Q: With G31U G39U as the variant, how does the self-cleavage read?
A: 0.353

Q: For G31U G45A, which self-cleavage is on record?
A: 0.95

Q: With G31U G45C as the variant, how does the self-cleavage read?
A: 0.819

Q: For G31U G45U, which self-cleavage is on record?
A: 0.933

Q: With G31U U32A as the variant, how does the self-cleavage read?
A: 0.802

Q: With G31U U32C as the variant, how does the self-cleavage read?
A: 0.69

Q: With G31U U32G as the variant, how does the self-cleavage read?
A: 0.871

Q: Which self-cleavage does the source give for U32A here?
A: 0.949

Q: With U32A A34C as the variant, how does the self-cleavage read?
A: 0.796

Q: With U32A A34G as the variant, how does the self-cleavage read?
A: 0.818

Q: With U32A A34U as the variant, how does the self-cleavage read?
A: 1.04

Q: With U32A A37C as the variant, how does the self-cleavage read?
A: 0.936

Q: Which self-cleavage does the source give for U32A A37G here?
A: 1.16

Q: With U32A A37U as the variant, how does the self-cleavage read?
A: 0.754

Q: With U32A A40C as the variant, how does the self-cleavage read?
A: 0.622

Q: For U32A A40G, which self-cleavage is on record?
A: 0.312

Q: With U32A A40U as the variant, how does the self-cleavage read?
A: 0.405

Q: With U32A A41C as the variant, how does the self-cleavage read?
A: 0.347

Q: With U32A A41G as the variant, how does the self-cleavage read?
A: 0.358

Q: With U32A A41U as the variant, how does the self-cleavage read?
A: 0.405

Q: For U32A A42C, which self-cleavage is on record?
A: 0.315

Q: For U32A A42G, which self-cleavage is on record?
A: 0.238

Q: With U32A A42U as the variant, how does the self-cleavage read?
A: 0.373

Q: With U32A A44C as the variant, how does the self-cleavage read?
A: 0.581

Q: For U32A A44G, which self-cleavage is on record?
A: 1.41

Q: With U32A A44U as the variant, how does the self-cleavage read?
A: 0.633

Q: For U32A C38A, which self-cleavage is on record?
A: 0.681

Q: Which self-cleavage does the source give for U32A C38G here?
A: 0.733

Q: Which self-cleavage does the source give for U32A C38U here?
A: 0.915

Q: For U32A C43A, which self-cleavage is on record?
A: 0.347

Q: Which self-cleavage does the source give for U32A C43G here?
A: 0.484

Q: With U32A C43U as the variant, how does the self-cleavage read?
A: 0.595

Q: For U32A G33A, which self-cleavage is on record?
A: 0.961

Q: With U32A G33C as the variant, how does the self-cleavage read?
A: 0.846

Q: For U32A G33U, which self-cleavage is on record?
A: 0.859

Q: For U32A G35A, which self-cleavage is on record?
A: 0.75

Q: For U32A G35C, which self-cleavage is on record?
A: 0.796

Q: With U32A G35U as the variant, how does the self-cleavage read?
A: 0.985
